Measurements: patent publication US20170016892A1, “LOCALIZED SURFACE PLASMON RESONANCE SENSING OF HUMAN PERFORMANCE BIOMARKERS USING SHORT PEPTIDE RECOGNITION ELEMENTS ON OPTICALLY ACTIVE METAL NANOSTRUCTURES” (Government of the United States as Represented by the …, priority 2015, published 2017)
Where no end group is shown, it is not given here.

What was measured:
[1] = thermal and shelf-life stability of BPDs by measured LSPR shift; format: physicochemical; conditions: incubated at 4° C. and at 60° C., each for 48 hrs
Experimental: To compare stability of both the peptide- and antibody-AuNR BPDs, each BPD type was incubated at 4° C. and at 60° C., each for 48 hrs. […] This reduction is believed to be due to antibody denaturation and lose molecular recognition at elevated temperatures.

[2] = target: human serum albumin (HSA) (Homo sapiens, UniProt P02768); experiment: selectivity of BPDs with human serum albumin as interfering protein (LSPR shift); format: binding; conditions: high concentrations of HSA
From the text: To compare selectivity of both the peptide- and antibody-AuNR BPDs towards cTnI, human serum albumin (“HSA”) was used as an interfering protein.

cTnI [3] = target: T1, cTnI (Homo sapiens, UniProt P19429); experiment: LSPR shift of BPDs on exposure to troponin in buffer; format: binding
Experimental: To probe the sensing capability of the BPDs, each BPD was exposed to troponin 1 (3.53 μg/mL in 0.1 M TBS, pH 8.0). […] The higher sensitivity of peptide-AuNR as compared to the sensitivity of the antibody-AuNR was believed to be due to differences in the thickness of the peptide and antibody adsorbate layer.
To probe the limit of detection in both the peptide- and antibody-AuNR BPDs, each BPD was exposed to varying concentrations of cTnI.

cTnI [4] = target: T1, cTnI; experiment: detection of troponin in human plasma with peptide-based BPDs (LSPR shift); format: binding
Experimental: (§1) Peptide-based BPDs prepared in accordance with embodiments of the present invention were used in detection of troponin in complex physiological fluids, including, for example, human plasma and sweat. To reduce nonspecific binding, the BPDs were first exposed to 1% HAS to block non-specific sites. […] The limit of detection of cTnI in human plasma was 353 pg/mL, which was within physiological relevant concentration range of troponin in human plasma (0.010 ng/mL to 10 ng/mL). […] Moreover, detection of troponin in artificial eccrine sweat at physiologically-relevant concentration was also accomplished (see, FIG. 16B).

troponin = troponin (Homo sapiens, UniProt P19429); experiment: detection of troponin in artificial eccrine sweat with peptide-based BPDs (LSPR shift); format: binding
Experimental: as §1

cTnI [5] = target: T1, cTnI; experiment: binding affinity of phage-display-identified peptide to cTnI; conditions: peptide identified from a phage display peptide library
From the text: Human troponin I binding peptide (Seq. ID No. 1), identified from a phage display peptide library, with nanomolar (nM) binding affinity to cTnI. Conjugation of the peptide to AuNR was achieved by introducing a cysteine resident at the C-terminus of the peptide (Seq. ID No. 2), to facilitate binding via an Au—S linkage.

cardiac troponin I = target: T2, cardiac troponin I (human, UniProt P19429 2-210, limits assumed); experiment: LSPR shift after troponin binding, peptide-AuNR against anti-cTnI-AuNR as reference
T2 construct: It was used in 0.1 M TBS pH 8.0, and spiked in human plasma and artificial eccrine sweat; also called cTnI; troponin 1
T2 sequence (P19429 2-210 limits assumed): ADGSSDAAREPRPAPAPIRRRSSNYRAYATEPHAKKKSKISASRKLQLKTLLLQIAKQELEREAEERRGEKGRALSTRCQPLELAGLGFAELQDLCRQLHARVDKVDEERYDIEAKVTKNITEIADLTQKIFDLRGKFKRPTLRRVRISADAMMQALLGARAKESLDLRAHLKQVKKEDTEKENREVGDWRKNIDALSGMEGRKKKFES

T1 sequence (P19429 whole entry): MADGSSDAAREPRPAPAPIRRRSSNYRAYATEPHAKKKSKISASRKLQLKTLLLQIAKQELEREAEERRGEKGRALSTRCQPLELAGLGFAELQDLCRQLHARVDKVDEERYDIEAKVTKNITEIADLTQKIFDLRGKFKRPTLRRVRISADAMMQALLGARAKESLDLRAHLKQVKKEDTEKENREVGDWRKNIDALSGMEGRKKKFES
Sequence of troponin (P19429 whole entry): as above

In the case of “peptide-AuNR: Troponin I binding peptide with C-terminal cysteine (Seq. ID No. 2) conjugated to gold nanorods via Au—S linkage, adsorbed on filter paper (FYSHSFHENWPSC; not fully specified (residue 13); also: conjugated to gold nanorods via Au–S bond of C-terminal Cys)”, the “stability (measured LSPR shift after incubation)” value [1] is reported as “remarkable thermal and temporal stability”, the “LSPR shift upon exposure to HSA” value [2] is reported as “small LSPR shifts” and the “LSPR red shift on exposure to troponin” value (cTnI [3]; troponin 1 3.53 μg/mL in 0.1 M TBS, pH 8.0) is reported as 12.3 nm. The “limit of detection of cTnI” value (cTnI [3]; varying concentrations of cTnI) was “about 35.3 pg/mL”, the “LSPR shift with increased troponin concentration” value (cTnI [4]) was “monotonic increase” and the “limit of detection of cTnI in human plasma” value (cTnI [4]; BPDs first blocked with 1% HAS) was 353 pg/mL. The “LSPR shift with increased troponin concentration” value (troponin) was “monotonic increase” and the “detection of troponin at physiologically-relevant concentration” value (troponin) was “accomplished”.

With “Human troponin I binding peptide: Human troponin I binding peptide (Seq. ID No. 1), identified from a phage display peptide library (FYSHSFHENWPS)” the “binding affinity to cTnI” value (cTnI [5]) was “nanomolar”.

B1: Human troponin I binding peptide with a cysteine residue introduced at the C-terminus (Seq. ID No. 2), conjugated to gold nanorods (AuNR) (peptide)
peptide: FYSHSFHENWPSC(AuNR)
notes: ID No. 1 is the parent phage-display peptide; ID No. 2 is the same peptide with an added C-terminal Cys, and it is the form on the AuNRs in the assays; also called peptide-AuNR
For B1, the “LSPR shift relative to antibodies as recognition elements” value (cardiac troponin I) was roughly 100 % higher.
